This is an account of results in paper PMC8514580, “Insight into the interaction between the RNA helicase CGH-1 and EDC-3 and its implications” (Scientific Reports, 2021).

A word on the Kd: it is the concentration at which binding is half-saturated. What is called stoichiometry N is a count of units in the complex or per binding partner.

Common to all, as to test: ITC; ligand (peptide or CAR-1 fragment, 0.5 mM) injected into CGH-1_(248-420) or mutant (0.05 mM) in the cell; 20 °C; Buffer B (20 mM Tris-HCl pH 7.5, 150 mM NaCl); one-binding-site model
What all share (conditions): both partners purified
(In ITC the heat of successive injections is recorded.)

The target of assay [1] is T1, CGH-1_(248–420) wild type (CGH-1 RecA2 domain) (C. elegans, UniProt Q95YF3 248-420).
T1 construct: Cloned into NdeI/XhoI of a modified pET-28a in which the thrombin cleavage site was removed; also called CGH-1_248-420^WT; source: E. coli Gold (DE3), purified (Ni-chelating resin, SEC Superdex 75)
T1 sequence (looked up): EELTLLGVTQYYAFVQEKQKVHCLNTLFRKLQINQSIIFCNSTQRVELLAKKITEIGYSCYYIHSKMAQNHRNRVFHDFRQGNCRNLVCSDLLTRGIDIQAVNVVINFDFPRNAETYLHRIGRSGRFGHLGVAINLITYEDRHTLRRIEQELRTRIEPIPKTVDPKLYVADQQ

Assay [2] addresses T2, CGH-1_(248–420) Y386A (C. elegans, UniProt Q95YF3 248-420, Y386A).
T2 construct: Mutant of m1 made with the MutanBEST kit; source: E. coli Gold (DE3), purified (Ni-chelating resin, SEC Superdex 75)
T2 sequence (looked up): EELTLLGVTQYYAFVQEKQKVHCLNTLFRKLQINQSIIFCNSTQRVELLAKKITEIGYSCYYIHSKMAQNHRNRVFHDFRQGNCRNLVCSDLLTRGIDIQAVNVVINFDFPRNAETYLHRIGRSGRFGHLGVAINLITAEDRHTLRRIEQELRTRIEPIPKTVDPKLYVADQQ

For assay [3], the target named is T3, CGH-1_(248–420) K277A (C. elegans, UniProt Q95YF3 248-420, K277A).
T3 construct: Mutant of m1 made with the MutanBEST kit; source: E. coli Gold (DE3), purified (Ni-chelating resin, SEC Superdex 75)
T3 sequence (looked up): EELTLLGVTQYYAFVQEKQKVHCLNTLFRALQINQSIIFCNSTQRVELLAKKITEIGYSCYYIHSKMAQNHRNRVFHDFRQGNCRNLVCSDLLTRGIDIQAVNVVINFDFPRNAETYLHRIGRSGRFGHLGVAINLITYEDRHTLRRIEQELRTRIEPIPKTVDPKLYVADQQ

Assay [4] addresses T4, CGH-1_(248–420) 4A mutant (His269, Cys270, Thr273 and Leu274 to Ala) (C. elegans, UniProt Q95YF3 248-420, His269 to Ala | Cys270 to Ala | Thr273 to Ala | Leu274 to Ala).
T4 construct: Mutant of m1 made with the MutanBEST kit; also called four-alanine mutant; source: E. coli Gold (DE3), purified (Ni-chelating resin, SEC Superdex 75)
T4 sequence (looked up): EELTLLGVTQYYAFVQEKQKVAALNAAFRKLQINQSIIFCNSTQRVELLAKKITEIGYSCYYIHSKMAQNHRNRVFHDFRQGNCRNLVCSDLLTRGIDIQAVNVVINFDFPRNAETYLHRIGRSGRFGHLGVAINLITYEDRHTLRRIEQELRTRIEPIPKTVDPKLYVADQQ

B1: PATR-1 peptide (CePATR-1_(30–67)) (peptide)
peptide: SDEDHNIFDDEFDAANDETFGGGLDNIGENAELENYAT
notes: PATR-1 (Pat1 ortholog), C. elegans, residues 30-67; Printed with free NH2 and COOH ends; also called PATR1_30-67^WT; CePATR-1 peptide; source: synthetic peptide (GL Biochem, Shanghai)
With B1, the Kd was 2.13 ± 0.38 µM in assay [1], 4.19 ± 0.58 µM in assay [2], 4.43 ± 0.42 µM in assay [3] and 2.06 ± 0.27 µM in assay [4]. Moreover, the dH in assay [1] was -15.8 ± 0.62 kcal/mol; in assay [2] it was -14.2 ± 0.56 kcal/mol; in assay [3] it was -17.2 ± 0.57 kcal/mol; in assay [4] it was -15.4 ± 0.44 kcal/mol. Further, the “stoichiometry N” value in assay [1] amounted to 0.88; in assay [2], 0.85; in assay [3], 1.07; in assay [4], 0.79.
